From patent US11814447B2, “Peptide ligands for binding to EphA2” (BICYCLERD LIMITED, priority 2018, dated 2023)
Starred links: 1 amine or outer side, 2 acyl side, 3 side chain; linkers in the order of their positions; H or OH if unused. Positions of bridges follow the written chain, without caps; N, C: chain ends. Non-standard residues stand in square brackets, D forms with d. Primed or numbered codes have the meaning given here. No end group written: not given here. TBMB′ = 1,3,5-tris(bromomethyl)benzene, 1,3,5-tris(methylene)benzene core, three thioethers to Cys; 4BenzylPro = 4-benzyl-pyrrolidine-2-carboxylic acid; Dip = N[C@H](C(=O)O)C(c1ccccc1)c1ccccc1; 1Nal = N[C@@H](Cc1cccc2ccccc12)C(=O)O; TBMB = c1c(C[*:1])cc(C[*:3])cc1C[*:2]; Ala(cPr) = N[C@@H](CC1CC1)C(=O)O; hArg = N=C(N)NCCCC[C@H](N)C(=O)O; Gly(cPr) = N[C@H](C(=O)O)C1CC1; Cba = N[C@@H](CC1CCC1)C(=O)O; Tle = CC(C)(C)[C@H](N)C(=O)O; Ac5c = NC1(C(=O)O)CCCC1; Ac4c = NC1(C(=O)O)CCC1; Ac3c = NC1(C(=O)O)CC1; Aib = CC(C)(N)C(=O)O; Sar = CNCC(=O)O

Target: T1, Human EphA2 (Ecto) (Human, UniProt P29317 24-537)
T1 construct: extracellular domain
T1 sequence (P29317 24-537): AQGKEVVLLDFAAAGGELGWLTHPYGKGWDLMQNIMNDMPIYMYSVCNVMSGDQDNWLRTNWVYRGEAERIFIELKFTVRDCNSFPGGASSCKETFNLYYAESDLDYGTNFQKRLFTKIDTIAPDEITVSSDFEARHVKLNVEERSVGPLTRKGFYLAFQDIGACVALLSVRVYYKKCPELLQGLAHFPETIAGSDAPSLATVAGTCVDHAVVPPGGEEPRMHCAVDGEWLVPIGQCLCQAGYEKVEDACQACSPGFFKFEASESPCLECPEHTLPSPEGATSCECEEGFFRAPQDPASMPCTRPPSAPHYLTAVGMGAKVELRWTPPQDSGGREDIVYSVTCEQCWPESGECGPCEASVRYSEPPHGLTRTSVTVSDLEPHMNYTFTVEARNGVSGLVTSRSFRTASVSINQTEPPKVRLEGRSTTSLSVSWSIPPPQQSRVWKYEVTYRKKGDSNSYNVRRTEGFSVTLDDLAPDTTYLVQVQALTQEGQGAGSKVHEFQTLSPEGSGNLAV
Experiment: FP competition, tracer Compound 18
Description: Peptides without a fluorescent tag were tested in competition with a peptide with a fluorescent tag and a known Kd (Table 2). Peptides were diluted to an appropriate concentration in assay buffer as described in the direct binding assay with a maximum of 5% DMSO, then serially diluted 1 in 2. […] Measurements were conducted as for the direct binding assay, however the gain was determined prior to the first measurement. Data analysis was in Systat Sigmaplot version 12.0 where the mP values were fit to a user defined cubic equation to generate a Ki value: […]

| Ki [nM] | Binder |
| --- | --- |
| 0.91 | Ac-[Sar][Sar]ADVTCPWGPFWCPVNRPGC (linker 7-14-21 via TBMB′) [Bicycle Compound 157] |
| 1.09 | Ac-[Sar][Sar][dH]DVPCPWGPFWCPVNRPGC (linker 7-14-21 via TBMB) [Bicycle Compound 224] |
| 1.2 | Ac-[Sar][Sar]ADVHCPWGPFWCPVNRPGC (linker 7-14-21 via TBMB) [Bicycle Compound 148] |
| 9.1 | Ac-[Sar][Sar]A[dD]VTCPWGPFWCPLNRPGC (linker 7-14-21 via TBMB′) [Bicycle Compound 174] |
| 3.96 | Ac-[Sar][Sar]A[dD]VTCPWGPNWCPVNRPGC (linker 7-14-21 via TBMB′) [Bicycle Compound 172] |
| 2.85 | Ac-[Sar][Sar]A[dD][dD]TCPWGPFWCPVNRPGC (linker 7-14-21 via TBMB′) [Bicycle Compound 159] |
| 0.7 | AHDVPCP[1Nal]GPFWCP[Tle]NRPGC (linker 6-13-20 via TBMB) [Bicycle Compound 190] |
| 2.94 | Ac-[Sar][Sar]A[dD]VTCPWG[Aib]F[1Nal]CPVNR[Aib]GC (linker 7-14-21 via TBMB′) [Bicycle Compound 179] |
| 1.24 | Ac-[Sar][Sar]H[dD]VPCPWG[Aib]F[1Nal]CPVNR[Aib]GC (linker 7-14-21 via TBMB) [Bicycle Compound 268] |
| 2.4 | Ac-[Sar][Sar]A[dD]VTCP[1Nal]G[Aib]FWCPVNR[Aib]GC (linker 7-14-21 via TBMB′) [Bicycle Compound 178] |
| 1.6 | Ac-[Sar][Sar]H[dD]VPCP[1Nal]G[Aib]FWCPVNR[Aib]GC (linker 7-14-21 via TBMB) [Bicycle Compound 266] |
| 2.17 | [dD]VTCPWGPFWCPVNRPGC (linker 4-11-18 via TBMB) [Bicycle Compound 185] |
| 2.55 | Ac-[Sar][Sar]A[dD][Gly(cPr)]TCPWGPFWCPVNRPGC (linker 7-14-21 via TBMB′) [Bicycle Compound 162] |
| 1.34 | [dD]VTCP[1Nal]G[Aib]F[1Nal]CP[Tle]NR[Aib]GC (linker 4-11-18 via TBMB′) [Bicycle Compound 186] |
| 52.8 | ADVHCP[Dip]GPFWCPVNRPGCA (linker 5-12-19 via TBMB) [Bicycle Compound 149] |
| 0.59 | Ac-[Sar][Sar]AHDVPCPWGPFWCPVNRPGC (linker 8-15-22 via TBMB) [Bicycle Compound 193] |
| 2 | [Sar][Sar]AH[dE]VPCPWGPFWCPVNRPGC (linker 8-15-22 via TBMB) [Bicycle Compound 208] |
| 1.27 | [Sar][Sar]AHDVACPWGPFWCPVNRPGC (linker 8-15-22 via TBMB) [Bicycle Compound 218] |
| 1.8 | [Sar][Sar]AHAVPCPWGPFWCPVNRPGC (linker 8-15-22 via TBMB) [Bicycle Compound 205] |
| 4.1 | Ac-[Sar][Sar]A[dD]DVPCPWGPFWCPVNRPGC (linker 8-15-22 via TBMB) [Bicycle Compound 200] |
| 26 | [Sar][Sar]AHD[dA]PCPWGPFWCPVNRPGC (linker 8-15-22 via TBMB) [Bicycle Compound 215] |
| 1.3 | [Sar][Sar]AHEVPCPWGPFWCPVNRPGC (linker 8-15-22 via TBMB) [Bicycle Compound 207] |
| 22.5 | [Sar][Sar]AHDAPCPWGPFWCPVNRPGC (linker 8-15-22 via TBMB) [Bicycle Compound 214] |
| 8.3 | [Sar][Sar]AH[dA]VPCPWGPFWCPVNRPGC (linker 8-15-22 via TBMB) [Bicycle Compound 206] |

| Ki [nM] | Binder |
| --- | --- |
| 15 | [Sar][Sar]AHDV[dA]CPWGPFWCPVNRPGC (linker 8-15-22 via TBMB) [Bicycle Compound 219] |
| 3.35 | [Sar][Sar]A[dA]DVPCPWGPFWCPVNRPGC (linker 8-15-22 via TBMB) [Bicycle Compound 199] |
| 1.01 | Ac-[Sar][Sar]AADVPCPWGPFWCPVNRPGC (linker 8-15-22 via TBMB) [Bicycle Compound 195] |
| 76.7 | Ac-[Sar][Sar]A[dD]VTC[Ac4c]WGPFWCPVNRPGC (linker 7-14-21 via TBMB′) [Bicycle Compound 166] |
| 0.6 | Ac-[Sar][Sar]A[dD]VTCP[1Nal]GPFWCPVNRPGC (linker 7-14-21 via TBMB′) [Bicycle Compound 170] |
| 138 | Ac-[Sar][Sar]A[dD]VTC[Ac5c]WGPFWCPVNRPGC (linker 7-14-21 via TBMB′) [Bicycle Compound 167] |
| 5.03 | Ac-[Sar][Sar]A[dD]VTC[4BenzylPro]WGPFWCPVNRPGC (linker 7-14-21 via TBMB′) [Bicycle Compound 168] |
| 1.75 | AHDVPCP[1Nal]G[Aib]FWCP[Tle]NR[Aib]GC (linker 6-13-20 via TBMB) [Bicycle Compound 192] |
| 0.32 | AHDVPCP[1Nal]GPFWCPVNRPGCA (linker 6-13-20 via TBMB′) [Bicycle Compound 187] |
| 3.83 | Ac-[Sar][Sar]A[dD]VTCPWG[Aib]FWCP[Tle]NR[Aib]GC (linker 7-14-21 via TBMB′) [Bicycle Compound 180] |
| 1.52 | Ac-[Sar][Sar]H[dD]VPCPWG[Aib]FWCP[Tle]NR[Aib]GC (linker 7-14-21 via TBMB) [Bicycle Compound 270] |
| 3.1 | AHDVPCP[1Nal]G[Aib]FWCP[Tle]N[hArg]PGC (linker 6-13-20 via TBMB) [Bicycle Compound 191] |
| 4.43 | Ac-[Sar][Sar]A[dD]VTCPWGPFWCPVNR[Aib][dD]C (linker 7-14-21 via TBMB′) [Bicycle Compound 177] |
| 1.45 | AHDVPCP[1Nal]GPFWCPVNRPGC (linker 6-13-20 via TBMB) [Bicycle Compound 188] |
| 2.6 | Ac-[Sar][Sar]A[dD][Cba]TCPWGPFWCPVNRPGC (linker 7-14-21 via TBMB′) [Bicycle Compound 160] |
| 4.44 | Ac-[Sar][Sar]A[dD][Ala(cPr)]TCPWGPFWCPVNRPGC (linker 7-14-21 via TBMB′) [Bicycle Compound 161] |
| 185 | Ac-[Sar][Sar]A[dD]VTC[Ac3c]WGPFWCPVNRPGC (linker 7-14-21 via TBMB′) [Bicycle Compound 165] |
| 1.37 | Ac-[Sar][Sar]A[dD]VTCP[1Nal]G[Aib]F[1Nal]CPVNR[Aib]GC (linker 7-14-21 via TBMB′) [Bicycle Compound 181] |
| 0.63 | Ac-[Sar][Sar]H[dD]VPCP[1Nal]G[Aib]F[1Nal]CPVNR[Aib]GC (linker 7-14-21 via TBMB) [Bicycle Compound 261] |
| 1.3 | AHDVPCPWGPF[1Nal]CPVNRPGC (linker 6-13-20 via TBMB) [Bicycle Compound 189] |
| 0.51 | ADVHCPWG[Aib]FWCPVNRPGCA (linker 5-12-19 via TBMB′) [Bicycle Compound 153] |
| 2.25 | Ac-[Sar][Sar]AD[Tle]TCPWGPFWCPVNRPGC (linker 7-14-21 via TBMB′) [Bicycle Compound 164] |
| 0.12 | ADVHCP[1Nal]GPFWCPVNRPGCA (linker 5-12-19 via TBMB) [Bicycle Compound 150] |
| 4.88 | Ac-[Sar][Sar]A[dD]VTCPWGP[hArg]WCPVNRPGC (linker 7-14-21 via TBMB′) [Bicycle Compound 171] |
